Measured values from patent US20030170252A1, “Antibody compositions specific for p33QIK and p63Krs1 polypeptides and uses thereof” (priority 2000, published 2003).

Columns and labels:
p33^QIK = assay: Phosphatase treatment of immunoprecipitated p33^QIK, in-gel kinase readout; format: biochemical, mouse; conditions: immune complexes from quiescent or osmotic-stressed quiescent cells; 0.1 unit PP1, 30° C., 30 min
Description: NIH3T3 cultures were synchronized in quiescent state by serum starvation for 48 hr (G0), followed by treatment with 300 mM NaCl (G0/NaCl) for 2 hr. p33^QIK in 10 μg of cytosolic lysates (S20) were immunoprecipitated by Ab-KQ (IP), followed by incubation of the immune complexes with 0.1 unit of PP1 (Ps) (lanes 2, 3, 5 and 6) in phosphatase buffer (50 mM Tris-HCl, pH 7.0, 0.1 mM EDTA, 5 mM dithiothreitol, 0.01% Brij 35, 2 mM MnCl2) in the presence of 10 mM Na3VO4 and 50 mM NaF (Ps+I)(lanes 3 and 6) at 30° C. for 30 min. The kinase activity of p33^QIK in the immune complexes was determined by the in-gel kinase assay using MBP as a substrate. Bar indicates p33^QIK.
(§1) MBP (BRL/GIBCO, Grand Island, N.Y.) was used as a substrate in the assay and the in-gel kinase assay was performed as previously described (Wang et al., 1992). Briefly, 10% SDS-polyacrylamide gel (SDS-PAG) was copolymerized with 0.4 mg/ml MBP. Cellular proteins were resolved in the MBP-immobilized SDS-PAG, followed by rinsing the gel with 20% isopropanol in buffer B (100 mM Tris, pH 8, 5 mM β-mercaptoethanol). The gel was denatured in buffer B supplemented with 6 M guanidine-HCl and renatured with buffer B supplemented with 0.04% Tween 40 (Kameshita and Fujisawa, 1989). […] Protein kinases which phosphorylated MBP in the gel were detected by autoradiography of the [γ^32P]-labeled MBP. […]

[1] = test system: p63^Krsl, p35, and p33^QIK; assay: Caspase-3 treatment of Ab-KQ immune complexes, in-gel kinase readout; format: biochemical, mouse; conditions: 0.2 μg Caspase-3, 37° C., 30 min
Description: Both p63^Krsl and p33^QIK in 10 μg of cytosolic lysates (S20) were immunoprecipitated by Ab-KQ (lanes 2 to 4 and 6 to 8), followed by reatment with 0.2 μg Caspase-3 (C)(lanes 3, 4, 7 and 8) in the presence of 5 μM caspase inhibitor Z-D-CH2-DCB (C+I)(lanes 4 and 8) at 37° C. for 30 min. The kinase activities of p63^Krsl, p35, and p33^QIK in 5 μg of S20 (lanes 1 and 5) and in the immune complexes were determined by the in-gel kinase assay using MBP as a substrate. Bars indicate p63^Krsl p35, and p33^QIK.
as §1, with “1989). Kinase reaction was carried out by incubating the gel with kinase buffer (20 Mm Tris, pH 7.2, 10 mM MgCl2, 15 mM β-glycerolphosphate) supplemented with 50 μM γATP and 50 μCi of [γ-^32P]ATP at 22° C. for 30 min.” for “1989).”

B1: Lambda phosphatase: Lambda protein phosphatase purchased from NE BioLabs (protein)
chain: MRYYEKIDGSKYRNIWVVGDLHGCYTNLMNKLDTIGFDNKKDLLISVGDLVDRGAENVECLELITFPWFRAVRGNHEQMMIDGLSERGNVNHWLLNGGGWFFNLDYDKEILAKALAHKADELPLIIELVSKDKKYVICHADYPFDEYEFGKPVDHQQVIWNRERISNSQNGIVKEIKGADTFIFGHTPAVKPLKFANQMYIDTGAVFCGNLTLIQVQGEGA
- kinase activity of activated p33^QIK after phosphatase treatment (p33^QIK): A similar result was obtained

B2: caspase-3: Recombinant human Caspase-3 purchased from Alexis Biochemicals (protein)
chain: SGISLDNSYKMDYPEMGLCIIINNKNFHKSTGMTSRSGTDVDAANLRETFRNLKYEVRNKNDLTREEIVELMRDVSKEDHSKRSSFVCVLLSHGEEGIIFGTNGPVDLKKITNFFRGDRCRSLTGKPKLFIIQACRGTELDCGIETDSGVDDDMACHKIPVEADFLYAYSTAPGYYSWRNSKDGSWFIQSLCAMLKQYADKLEFMHILTRVNRKVATEFESFSFDATFHAKKQIPCIVSMLTKELYFYH
- kinase activities of p63^Krsl, p35 and p33^QIK in immune complexes ([1]; immune complexes from STSP-treated cells): both the kinase activities of p63^Krsl and p35 decreased in correlation with an increased p33^QIK activity
- kinase activity of p33^QIK in immune complexes ([1]; p33^QIK isolated from osmotic-stressed quiescent or growing cultures): no change was detected in the kinase activity of p33^QIK
